Data from US20120288494A1.

Experiments:
[1] = biological target: IL-12 (UniProt P29460); assay: receptor binding assay (RBA)
[2] = biological target: human IL-12 p70 (human) (UniProt P29460); assay: koff; method not given
Sequence of human IL-12 p70 (human) (P29460 23-328, chain 1 of 2): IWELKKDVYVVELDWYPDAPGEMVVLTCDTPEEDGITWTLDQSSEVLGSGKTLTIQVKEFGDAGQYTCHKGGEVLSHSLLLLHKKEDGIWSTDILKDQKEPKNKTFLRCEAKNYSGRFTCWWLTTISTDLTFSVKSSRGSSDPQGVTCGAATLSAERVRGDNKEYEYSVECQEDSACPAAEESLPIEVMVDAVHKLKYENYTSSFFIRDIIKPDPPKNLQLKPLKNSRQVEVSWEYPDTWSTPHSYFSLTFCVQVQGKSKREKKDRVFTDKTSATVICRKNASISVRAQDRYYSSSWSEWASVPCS
Sequence of human IL-12 p70 (human) (chain, as listed by the source, chain 2 of 2): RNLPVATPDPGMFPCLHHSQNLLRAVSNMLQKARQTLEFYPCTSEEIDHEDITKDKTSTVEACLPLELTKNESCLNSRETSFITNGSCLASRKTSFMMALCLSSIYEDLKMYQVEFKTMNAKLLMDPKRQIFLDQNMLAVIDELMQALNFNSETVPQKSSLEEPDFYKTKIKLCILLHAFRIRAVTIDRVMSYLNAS

Sequence of IL-12 (P29460 23-328, chain 1 of 2): as the sequence (P29460 23-328, chain 1 of 2) above
Sequence of IL-12 (P29459 23-219, chain 2 of 2, further chain): as the sequence (chain, as listed by the source, chain 2 of 2) above

Row | IC50 [1] [nM] | fold increase in koff (against Y61) [2] [fold] | Substance
1 | 0.06 | – | Y61 L94Y
2 | – | 2.5 | Y61 with Asn-L31 mutated to aspartate (antibody)
3 | 0.02 | – | Y61 L50Y
4 | – | 8 | Y61 with His-H95 mutated to glutamate (antibody)
